Here are results for 10 molecules from US20240131155A1, “T CELLS FOR USE IN THERAPY” (Erasmus University Medical Center Rotterdam, priority 2021, published 2024).

Broadly, the EC50 is the concentration needed to bring the measured effect to its halfway point.

Assay [1] concerns the target T1, HLA-A2 (HLA-A2:01) on T2 cells (human).
T1 construct: detected with anti-HLA-A2 mAb BB7.2
The assay is described as follows: HLA-A2 stabilization assay on T2 cells, peptide titration (Example 2); column Affinity for HLA.A2.01 (M).

For assay [2], the target named is T1, HLA-A2 (HLA-A2:01) on T2 cells. Description: HLA-A2 stabilization assay on T2 cells (anti-HLA-A2-PE, flow cytometry), single peptide concentration [panel D].
The target is the same in assay [3]. Description: HLA-A2 stabilization assay on T2 cells, peptide titration; amplitude relative to that of reference peptide YLE [panel D].
For assay [4] the target is unchanged. The assay is described as follows: HLA-A2 stabilization assay on T2 cells (anti-HLA-A2-PE, flow cytometry), single peptide concentration [panel B; D00018 Figure 7 continued, panel D].
For assay [5] the target is unchanged. The assay is described as follows: HLA-A2 stabilization assay on T2 cells (anti-HLA-A2-PE, flow cytometry), single peptide concentration 25 ug/mL [panel E]. Background: Flow cytometry measures light scatter and fluorescence of single cells or particles in a stream.
For assay [6] the target is unchanged. Description: HLA-A2 stabilization assay on T2 cells (anti-HLA-A2-PE, flow cytometry), single peptide concentration [panel C; D00007 Figure 3 continued, panel E].
The target of assay [7] is MLN epitope (…) presented by HLA-A2 on cells (human). Description: cell-based or functional assay.
Assay [8] deals with T1, HLA-A2 (HLA-A2:01) on T2 cells. Description: HLA-A2 stabilization assay on T2 cells, peptide titration; EC50 calculated with GraphPad [panel E].
For assay [9] the target is unchanged. The assay is described as follows: HLA-A2 stabilization assay on T2 cells, peptide titration; EC50 calculated with GraphPad [panel D].
Assay [10] shares this target. The assay is described as follows: HLA-A2 stabilization assay on T2 cells, peptide titration; amplitude = highest data point corrected for baseline [panel E].
Assay [11] addresses T2, ROPN1B epitope 1 (MLN) with alanine at position 6 peptide on HLA-A*02:01 (human).
T2 peptide: MLNYIAQEV
The assay is described as follows: cytokine release.

The target of assay [12] is T3, ROPN1B epitope 1 (MLN) with alanine at position 8 peptide on HLA-A*02:01 (human).
T3 peptide: MLNYIEQAV
Description: cytokine release.

For assay [13], the target named is T4, ROPN1B epitope 1 (MLN) with alanine at position 9 peptide on HLA-A*02:01 (human).
T4 peptide: MLNYIEQEA
The assay is described as follows: cytokine release.

For assay [14], the target named is T5, ROPN1 (counterpart of the ROPN1B MLN epitope, one residue different) peptide on HLA-A*02:01 (human).
T5 peptide: MLNYMEQEV
The assay is described as follows: cytokine release.

In assay [15] the target is T6, gp100 peptide on HLA-A*02:01 (human).
T6 peptide: YLEPGPVTA
Description: cytokine release.

Assay [16] addresses T7, ROPN1B peptide on HLA-A*02:01 (human).
T7 peptide: MLNYIEQEV
Description: multimer staining.

The target of assay [17] is T1, HLA-A2 (HLA-A2:01) on T2 cells. The assay is described as follows: HLA-A2 stabilization assay on T2 cells, peptide titration; amplitude relative to that of reference peptide YLE; EC50 cell is 'x' [panel D].

B1: Epitope 11 (EVI) peptide EVIGPDGLITV of ROPN1B (peptide)
peptide: EVIGPDGLITV
notes: Synthetic peptide
In the case of B1, a half-maximal response in assay [1] (EC50) required 655 nM. Besides, in assay [2], the Minimum stability came out at 1.57 fold change over baseline. Further, the Amplitude in [3] is 1.12 relative to YLE.

B2: SALGVTITK (peptide)
peptide: SALGVTITK
notes: ROPN1A and ROPN1B, eluted
For B2, the Minimum stability in assay [2] is 0.92 fold change over baseline. In [4], the binding result is given as “no binding”.

B3: RLIIRAEEL (peptide)
peptide: RLIIRAEEL
notes: ROPN1 and ROPN1B, predicted
For the molecule B3, the Minimum stability in [2] and in assay [5] was 0.91 fold change over baseline each time. Also, the binding result in assay [6] was “no binding (tested: 25 ug/mL)”.

B4: MLN-TCR2 (epitope 1 (MLN)-specific TCR) (TCR, V domains shown)
V domain 1: RGEDVEQSLFLSVREGDSSVINCTYTDSSSTYLYWYKQEPGAGLQLLTYIFSNMDMKQDQRLTVLLNKKDKHLSLRIADTQTGDSAIYFCAEDGGGSYIPTFGRGTSLIVHP
V domain 2: EAGVTQFPSHSVIEKGQTVTLRCDPISGHDNLYWYRRVMGKEIKFLLHFVKESKQDESGMPNNRFLAERTGGTYSTLKVQPAELEDSGVYFCASSPGPGQNSPLHFGNGTRLTVTE
Regarding B4, the “EC50 of T cell IFN-gamma production, peptide titration on BSM cells” value in [7] was determined as 11 nM.

B5: NY-ESO1 peptide SLLMWITQV (peptide)
peptide: SLLMWITQV
notes: also called NY-ESO peptide SLL
For the molecule B5, the EC50 in [8] and in assay [9] was 5080 nM each time. Moreover, the Amplitude is 0.93 relative to YLE in assay [3] and 4220 geometric mean normalized to baseline in [10].

B6: Epitope 16 peptide AELTPELLKI (10-mer derived from immunopeptidome) (peptide)
peptide: AELTPELLKI
notes: Eluted from ROPN1B-overexpressing MDA-MB231 cells; mapped in silico to HLA-B40:01
Take B6: the figures for the Minimum stability in assay [2] and in assay [5] were 1.08 fold change over baseline and 1.17 fold change over baseline, respectively. Besides, the binding result in assay [4] is “no binding”.

B7: MLN-TCR2 (TCR, V domains shown)
Valpha: GEDVEQSLFLSVREGDSSVINCTYTDSSSTYLYWYKQEPGAGLQLLTYIFSNMDMKQDQRLTVLLNKKDKHLSLRIADTQTGDSAIYFCAEDGGGSYIPTFGRGTSLIVHP
Vbeta: EAGVTQFPSHSVIEKGQTVTLRCDPISGHDNLYWYRRVMGKEIKFLLHFVKESKQDESGMPNNRFLAERTGGTYSTLKVQPAELEDSGVYFCASSPGPGQNSPLHFGNGTRLTVT
As to B7, the binding result in [11] was “recognises”; in assay [12] it was “recognises”; in assay [13], “recognises”; in assay [14] it was “no recognition”; in [15], “no recognition”; in [16] it was “recognises”.

B8: YIAEVDGEI (peptide)
peptide: YIAEVDGEI
notes: ROPN1B, predicted
As for B8, the Minimum stability in [2] was found to be 1.41 fold change over baseline; in assay [5], 1.16 fold change over baseline. In addition, the Amplitude in assay [17] is 0.939 relative to YLE.

B9: Epitope 10 (FLY-B) peptide FLYTYIAEV of ROPN1B (peptide)
peptide: FLYTYIAEV
notes: Synthetic peptide
For the molecule B9, it took 21100 nM to reach a half-maximal effect in assay [1] (EC50). Also, the Minimum stability in assay [2] turned out to be 1.42 fold change over baseline. Moreover, in [3], the Amplitude is 0.593 relative to YLE.

B10: GVTITKTLK (peptide)
peptide: GVTITKTLK
notes: ROPN1A and ROPN1B, eluted
With B10, in [9], the EC50 was 570 nM. In addition, in assay [2], the Minimum stability is 1.18 fold change over baseline. Also, in [3], the Amplitude is 0.489 relative to YLE.
